From publication PMC8130932 (PLoS Pathogens, 2021) come the findings set out here.

The target of experiment [1] is SARS-CoV-2 nucleocapsid, recombinant (SARS-CoV-2, reference sequence, UniProt P0DTC9). Put plainly: ELISA.
The target in experiment [2] is T1, SARS-CoV-2 spike S2 subunit, recombinant (SARS-CoV-2, reference sequence, UniProt P0DTC2).
T1 construct: source: bought: Sino Biologicals, baculovirus-insect cells
Put plainly: ELISA. On the technique in general: An ELISA detects its analyte on a solid surface through an enzyme-linked reagent.

Experiment [3] has as its target T2, Human coronavirus OC43 spike glycoprotein S1+S2 extracellular domain (Human coronavirus OC43, AVR40344.1 (by …)).
T2 construct: source: bought: Sino Biologicals
T2 chain: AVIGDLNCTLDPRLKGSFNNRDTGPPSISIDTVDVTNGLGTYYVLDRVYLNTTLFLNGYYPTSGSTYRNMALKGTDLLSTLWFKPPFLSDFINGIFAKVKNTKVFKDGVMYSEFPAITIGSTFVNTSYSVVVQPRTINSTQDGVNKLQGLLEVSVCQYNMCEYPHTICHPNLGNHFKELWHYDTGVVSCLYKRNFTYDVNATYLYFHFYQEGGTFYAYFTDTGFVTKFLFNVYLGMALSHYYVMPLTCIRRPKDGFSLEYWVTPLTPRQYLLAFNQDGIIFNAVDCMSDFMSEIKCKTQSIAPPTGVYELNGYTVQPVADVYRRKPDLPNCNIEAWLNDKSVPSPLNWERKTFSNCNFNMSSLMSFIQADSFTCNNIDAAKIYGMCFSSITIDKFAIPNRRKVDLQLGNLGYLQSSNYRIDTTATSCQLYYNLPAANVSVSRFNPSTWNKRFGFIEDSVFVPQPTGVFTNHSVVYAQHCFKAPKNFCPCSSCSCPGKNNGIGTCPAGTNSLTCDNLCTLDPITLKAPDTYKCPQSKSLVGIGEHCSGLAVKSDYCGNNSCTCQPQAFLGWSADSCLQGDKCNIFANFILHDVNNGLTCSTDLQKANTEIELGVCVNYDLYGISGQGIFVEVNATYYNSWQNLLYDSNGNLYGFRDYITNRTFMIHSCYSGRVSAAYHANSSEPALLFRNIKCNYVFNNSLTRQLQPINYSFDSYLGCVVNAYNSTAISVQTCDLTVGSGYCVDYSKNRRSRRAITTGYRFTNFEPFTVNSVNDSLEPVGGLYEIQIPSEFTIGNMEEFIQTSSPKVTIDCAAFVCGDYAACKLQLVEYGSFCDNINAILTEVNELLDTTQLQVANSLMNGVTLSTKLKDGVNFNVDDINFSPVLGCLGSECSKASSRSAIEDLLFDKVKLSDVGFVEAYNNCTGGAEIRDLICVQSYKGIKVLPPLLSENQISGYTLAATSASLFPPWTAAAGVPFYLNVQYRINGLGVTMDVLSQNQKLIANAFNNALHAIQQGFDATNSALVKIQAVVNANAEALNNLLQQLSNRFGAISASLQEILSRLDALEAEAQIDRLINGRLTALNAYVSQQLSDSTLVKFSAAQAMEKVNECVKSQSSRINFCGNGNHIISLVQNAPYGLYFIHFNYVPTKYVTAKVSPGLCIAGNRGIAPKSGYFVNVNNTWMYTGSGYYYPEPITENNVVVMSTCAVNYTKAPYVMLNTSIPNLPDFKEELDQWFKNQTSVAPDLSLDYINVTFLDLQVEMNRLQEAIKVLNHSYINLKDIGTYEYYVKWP
Put plainly: ELISA.

In experiment [4] the target is SARS-CoV-2 spike glycoprotein of wild-type virus, in infected Vero E6 cells (SARS-CoV-2 …, UniProt P0DTC2). Put plainly: cell-based or functional assay.
For experiment [5], the target named is T3, SARS-CoV-2 RBD (amino acids 340-538) on MDCK-SIAT1 cells (SARS-CoV-2 (so in the source)).
T3 construct: also called MDCK-RBD; source: MDCK-SIAT1, stably transduced (lentiviral vector), on the cell surface
Put plainly: flow cytometry on cells. As to conditions: one partner purified.

In experiment [6] the target is T4, SARS-CoV-2 NTD on MDCK-SIAT1 cells (SARS-CoV-2 (so in the source)).
T4 construct: also called MDCK-NTD
Put plainly: flow cytometry on cells. As to conditions: one partner purified.

The target of experiment [7] is T5, SARS nucleocapsid, recombinant (SARS-CoV, reference sequence (strain …, UniProt P59595)).
T5 construct: source: bought: Sino Biologicals, baculovirus-insect cells
Put plainly: ELISA.

B1: EZ 4A (antibody, V domains shown)
VH: EVQLVQSGAEVKKPGESLKISCKGSGYSFTSYWIGWVRQMPGKGLEWMGIIYPGDSDTRYSPSFQGQVTISADKSISTAYLQWSSLKASDTAMYYCARSPIAADLFDYWGQGTLVTVSS
VL: not shown
notes: source: HEK293T, transfected; culture supernatant or purified
For the molecule B1, in experiment [1], the OD450 came out at 1.03 OD450.

B2: EZ 4C-1 (antibody, V domains shown)
VH: EVQLVESGPGLVKPSETLSLTCTVSGGSVSSGNNYWSWIRQPPGKALEWIGYIYYSGSTKYNPSLKSRVTMSVGTSKNQFSLKVNSVTAADTAMYYCARAPSAPFGGLFDWILPKGINNWGQGTLVTVSS
VL: EIVLTQSPSTLSASVGDRVTITCRTSQSIRSWLAWYQQKPGKAPKLLIFEASTLESGVPERFSGSGSGAEFTLTISSLQPDDFATYYCQQYNGYSYSFGQGTKVEIR
notes: as for B1
Turning to B2, the OD450 in experiment [1] came out at 0.6 OD450.

B3: FN 2C (antibody, V domains shown)
VH: EVQLLESGGGVVQPGRSLRLSCAASGFNFNNYGMHWVRQAPGKGLEWVATISYEGSKKFYVDSVKGRFTISKDNSKNTLYLQMNSLRVDDTAFYYCAKRREIFWLGEPPLSDAFDFWGQGTMVTVSS
VL: QSVLTQPPSVSGAPGQRVTISCTGSGSNIGAGYDVHWYQFLPGTAPQLLIYGNNNRPSGVPDRFSGSKSGTSASLAITGLQAEDEADYYCQSYDSSLSGSVFGGGTKLTVL
notes: as for B1
Take B3: the OD450 is 1.15 OD450 in experiment [2] and 2.2 OD450 in experiment [3].

B4: FJ 1C (antibody, V domains shown)
VH: QVQLQESGPGLVKPSETLSLTCTVSGYSISSGYYWGWIRQPPGKGLEWIGSIYHSGSTYYNPSLKSRVTISVDTSKNQFSLKLSSVTAADTAVYYCARDKALLWFGELFTNLFDYWGQGTLVTVSS
VL: QSALTQPASVSGSPGQSITISCTGTSSDVGGYNYVSWYQQHPGKAPKLMIYEVSNRPSGVSNRFSGSKSGNTASLTISGLQAEDEANYYCSSYTSSSTLVFGGGTKLTVL
notes: as for B1
As to B4, the “PRNT EC50, wild-type SARS-CoV-2 (hCoV-19/England/02/2020) on Vero E6 cells” value (“PRNT EC50” below) in experiment [4] was determined as 55.5 nM. In addition, the values for the binding result in experiment [5] and in experiment [6] were “no binding” and “binds”, respectively.

B5: EZ 11A (antibody, V domains shown)
VH: EVQLVESGGGLVQPGGSLRLSCAASGFTFSSYWMSWVRQAPGKGLEWVANIKQDGSEKYYVDSVKGRFTISRDNAKNSLYLQMNSLRAEDTAVYYCARDDYSGSYYWEFDYWGQGTLVTVSS
VL: QPVLTQSPSASASLGASVKLTCTLSSGHSSYAIAWHQQQPEKGPRYLMKLNSDGSHSKGDGIPDRFSGSSSGAERYLTISSLQSEDEADYYCQTWGTGIWVFGGGTKLTVL
notes: as for B1
Take B5: the OD450 in experiment [1] was 1.29 OD450; in experiment [7], 1.31 OD450.

B6: FD 10A (antibody, V domains shown)
VH: EVQLVESGGGLVQPGGSLRLSCAASGFTFSSYWMHWVRQAPGKGLVWVSRINSDGSSTSYADSVKGRFTISRDNAKNTLYLQMNSLRAEDTAVYYCANMAFDIWGQGTMVTVSS
VL: not shown
notes: as for B1
In the case of B6, the OD450 in experiment [2] was found to be 1.32 OD450. Besides, in experiment [4], the “PRNT EC50” value is 111 nM. The binding result in experiment [5] and in experiment [6] was “no binding” in each case.

B7: EY 2A (antibody, V domains shown)
VH: QVQLVESGAEVTKPGDSLIISCKGSGYAFTQYWIGWVRQKPGKGLEWMAMVYPDSSAVFAGGASGVRYRPPFQGQVTISADTSVNTAYLQWDSLKASDTAMYYCVRQERGSNTWYAGNSWGQGTLVTVSS
VL: DIVMTQSPLSLPVSPGEPASISCRSSQSLLHTDAYNYLDWYLQKPGQSPQLLIYLGSTRASGVPDRFSGSGSGTDFTLKISSVKAEDVGVYYCMQALQTPGTFGQGTKLEIK
notes: as for B1
As to B7, the OD450 in experiment [1] amounted to 1.28 OD450; in experiment [7], 1.13 OD450.

B8: EY 3B (antibody, V domains shown)
VH: EVQLVESGAEVTKPGESLIISCKGSGYAFTQYWIGWVRQKPGKGLEWMAMVYPDSSAVFAGGASGVRYRPPFQGQVTISADTSVNTAYLQWDSLKASDTAMYYCVRQERGSNTWYAGNSWGQGTLVTVFS
VL: EIVLTQSPLSLPVSPGEPASISCRSSQSLLHTDAYNYLDWYLQKPGQSPQLLIYLGSTRASGVPDRFSGSGSGTDFTLKISSVKAEDVGVYYCMQALQTPGTFGQGTKVEIR
notes: as for B1
With B8, the values for the OD450 in experiment [1] and in experiment [7] were 1.22 OD450 and 1 OD450, respectively.

B9: FD 1D (antibody, V domains shown)
VH: EVQLVESGGGVVQPGRSLRLSCAASGFTFSSYAMHWVRQAPGKGLEWVAVISYDGSNKYYADSVKGRFTISRDNSKNTLYLQMNSLRAEDTAVYYCARAGSGSYLNWFDPWGQGTLVTVSS
VL: EIVLTQSPATLSLSPGERATLSCRASQSVSSYLAWYQQKPGQAPRLLIYDASNRATGIPARFSGSGSGTDFTLTISSLEPEDFAVYYCQQRSNWPITFGQGTRLEIK
notes: as for B1
Take B9: the OD450 in experiment [2] stood at 1.06 OD450. The binding result in experiment [5] and in experiment [6] was “no binding” each time.

B10: EW 9C (antibody, V domains shown)
VH: EVQLVESGGGVVQPGASLRLSCVASGFTFNNFGFHWVRQAPGKGLEWLAVISYEGSKTYYAESLKGRFTISRDTSKNTVYLQMNSLRAEDTAVYYCARATSIFWFGEGRNWFDPWGQGTMVTVSS
VL: EIVLTQSPGTVSLSAGERATLSCRASQNVGTDLAWYVQRPGQAPRLLIYDTSNKATGIPARFSGRGSGTDFTLTIDSLEPEDFAVYYCQQRSNWPLTFGGGTKVEIR
notes: as for B1
On to B10, for which the OD450 in experiment [2] was 1.17 OD450; in experiment [3], 1.82 OD450. In addition, the “PRNT EC50” value in experiment [4] stood at 133 nM.

B11: EZ 7B (antibody, V domains shown)
VH: EVQLVESSPGLVKPSETLSLTCTVSGGSISSYYWSWIRQPPGKGLEWIGYIYYSGSTNYNPSLKSRVTISVDTSKNQFSLKLSSVTAADTAVYYCARRVFGPVLPSKLGGSYWGGGAFDIWGQGTMVTVSS
VL: not shown
notes: as for B1
With B11, the OD450 in experiment [1] was determined as 1.01 OD450.

B12: FD 11E (antibody, V domains shown)
VH: EVQLVESGGGLVKPGGSLRLSCAASGFTFSSYSMNWVRQAPGKGLEWVSSISSSSSYIYYADSVKGRFTISRDNAKNSLYLQMNSLRAEDTAVYYCASLAAAGPETYYYYGMDVWGQGTMVTVSS
VL: not shown
notes: as for B1
As for B12, in experiment [4], the “PRNT EC50” value worked out at 70 nM. Further, the binding result in experiment [5] and in experiment [6] was “no binding” in each case.

B13: FD 1E (antibody, V domains shown)
VH: EVQLLESGGGLVKPGGSLRLSCAASGFTFSSYSMNWVRQAPGKGLEWVSSISSSSSYIYYADSVKGRFTISRDNAKNSLYLQMNSLRAEDTAVYYCASLAAAGPETYYYYGMDVWGQGTMVTVSS
VL: not shown
notes: as for B1
Consider B13, for which the “PRNT EC50” value in experiment [4] stood at 110 nM.

B14: FD 6D (antibody, V domains shown)
VH: EVQLVESGPGLVKVSETLFLTCTVSGYSIGSGNYWGWIRQPPGKVLEWIGSTYHSGTTYYNPSLKSRVTISVDSSKNQFSLKLTSVTAADTAVYYCARDRLLAVHYDSRGYLVDYWGQGTMVTVSS
VL: AIRMTQSPDSLAVSLGERATINCKSSQSIFYSSNNKNYLAWYQHKPGQPPKLLIYWASTRESGVPDRFSGSGSGTDFTLTISSLQAEDVAIYYCQQYYDIPRTFGQGTKVEIR
notes: as for B1
As to B14, the OD450 in experiment [1] was 1.73 OD450; in experiment [7] it was 1.19 OD450.
